EC50 data for one molecule are collected here from patent US20190016785A1 (published 2019).

The target in test [1] is HBsAg ayw (hepatitis B virus). Briefly: ELISA.
Test [2] has as its target HBsAg adr. As to the kind of experiment: ELISA.

B1: HBC34 (antibody, V domains shown)
VH: ELQLVESGGGWVQPGGSQRLSCAASGRIFRSFYMSWVRQAPGKGLEWVATINQDGSEKLYVDSVKGRFTISRDNAKNSLFLQMNNLRVEDTAVYYCAAWSGNSGGMDVWGQGTTVSVSS
VL: SYELTQPPSVSVSPGQTVSIPCSGDKLGNKNVCWFQHKPGQSPVLVIYEVKYRPSGIPERFSGSNSGNTATLTISGTQAMDEAAYFCQTWDSTTVVFGGGTRLTVL
The EC50 is the concentration at which the effect is half-maximal. Low values mean an effect from little substance, high ones a need for much substance. On to B1, for which the figures for the concentration for a half-maximal effect (EC50) in test [1] and in test [2] were 10 ng/mL and 6 ng/mL, respectively.
